Measurements: patent publication US20210246166A1 (Bayer, published 2021)
Numbered stars: 1 amine (or outer) side, 2 acyl side, 3 side chain; on linkers, the order of the positions; unused ones are H or OH. Bridge positions count the residues as written; N and C are the ends. Square brackets hold non-standard residues; d marks the D form. Primed or numbered codes have the meaning given here. Ends that are not written are not given here. PEG9(31 atoms) = 1-amino-3,6,9,12,15,18,21,24,27-nonaoxatriacontan-30-oic acid; TTDS(3) = 1,13-Diamino-4,7,10-trioxatridecan-succinamic acid; cPrCO(1-aminomethyl) = O=C(C1(CN[*:1])CC1)[*:2]; Pro(4-spirocPr) = O=C(O)[C@@H]1CC2(CC2)CN1; Oic = O=C(O)[C@@H]1C[C@@H]2CCCC[C@@H]2N1; tBuAla = CC(C)(C)C[C@H](N)C(=O)O; Pen = CC(C)(S)[C@H](N)C(=O)O; NMeC = CN[C@@H](CS)C(=O)O; PEG3 = NCCOCCOCCOCCC(=O)O; Pip = O=C(O)[C@@H]1CCCCN1; PEG2 = NCCOCCOCCC(=O)O; Sar = CNCC(=O)O

B1: Example 32: (ACMP)-IC+SRS-((tBu)A)-PPI-(Pen)+IPD-NH2 (peptide)
peptide: [cPrCO(1-aminomethyl)]ICSRS[tBuAla]PPI[Pen]IPD-NH2
modifications: disulfide 3-11; N-terminus assumed
SMILES: CC[C@H](C)[C@@H]1NC(=O)[C@@H]2CCCN2C(=O)[C@@H]2CCCN2C(=O)[C@H](CC(C)(C)C)NC(=O)[C@H](CO)NC(=O)[C@H](CCCNC(=N)N)NC(=O)[C@H](CO)NC(=O)[C@@H](NC(=O)[C@@H](NC(=O)C2(CN)CC2)[C@@H](C)CC)CSSC(C)(C)[C@@H](C(=O)N[C@H](C(=O)N2CCC[C@H]2C(=O)N[C@@H](CC(=O)O)C(N)=O)[C@@H](C)CC)NC1=O
B2: Example 88: ((N-Me)G)-IC+SRSLP-(Oic)-I-(Pen)+IPD-OH (peptide)
peptide: [Sar]ICSRSLP[Oic]I[Pen]IPD-OH
modifications: disulfide 3-11; N-terminus assumed
SMILES: CC[C@H](C)[C@H](NC(=O)CNC)C(=O)N[C@H]1CSSC(C)(C)[C@@H](C(=O)N[C@H](C(=O)N2CCC[C@H]2C(=O)N[C@@H](CC(=O)O)C(=O)O)[C@@H](C)CC)NC(=O)[C@H]([C@@H](C)CC)NC(=O)[C@@H]2C[C@@H]3CCCC[C@@H]3N2C(=O)[C@@H]2CCCN2C(=O)[C@H](CC(C)C)NC(=O)[C@H](CO)NC(=O)[C@H](CCCNC(=N)N)NC(=O)[C@H](CO)NC1=O
B3: Example 21: AIC+SRS-((tBu)A)-PPI-(Pen)+IPe-NH2 (peptide)
peptide: AICSRS[tBuAla]PPI[Pen]IP[dE]-NH2
modifications: disulfide 3-11; N-terminus assumed
SMILES: CC[C@H](C)[C@H](NC(=O)[C@H](C)N)C(=O)N[C@H]1CSSC(C)(C)[C@@H](C(=O)N[C@H](C(=O)N2CCC[C@H]2C(=O)N[C@H](CCC(=O)O)C(N)=O)[C@@H](C)CC)NC(=O)[C@H]([C@@H](C)CC)NC(=O)[C@@H]2CCCN2C(=O)[C@@H]2CCCN2C(=O)[C@H](CC(C)(C)C)NC(=O)[C@H](CO)NC(=O)[C@H](CCCNC(=N)N)NC(=O)[C@H](CO)NC1=O
B4: Example 41: AIC+SRS-((tBu)A)-P-((6S)-5-Azaspiro[2.4]heptane-6-carboxylic acid)-I-((N-Me)C)+IPD-NH2 (peptide)
peptide: AICSRS[tBuAla]P[Pro(4-spirocPr)]I[NMeC]IPD-NH2
modifications: disulfide 3-11; N-terminus assumed
SMILES: CC[C@H](C)[C@H](NC(=O)[C@H](C)N)C(=O)N[C@H]1CSSC[C@@H](C(=O)N[C@H](C(=O)N2CCC[C@H]2C(=O)N[C@@H](CC(=O)O)C(N)=O)[C@@H](C)CC)N(C)C(=O)[C@H]([C@@H](C)CC)NC(=O)[C@@H]2CC3(CC3)CN2C(=O)[C@@H]2CCCN2C(=O)[C@H](CC(C)(C)C)NC(=O)[C@H](CO)NC(=O)[C@H](CCCNC(=N)N)NC(=O)[C@H](CO)NC1=O
B5: Example 468: ((N-Me)G)-IC+SRSLP-(Oic)-I-(Pen)+IP-(PEG2(13 atoms))-OH (peptide)
peptide: [Sar]ICSRSLP[Oic]I[Pen]IP[PEG3]-OH
modifications: disulfide 3-11; N-terminus assumed
SMILES: CC[C@H](C)[C@H](NC(=O)CNC)C(=O)N[C@H]1CSSC(C)(C)[C@@H](C(=O)N[C@H](C(=O)N2CCC[C@H]2C(=O)NCCOCCOCCOCCC(=O)O)[C@@H](C)CC)NC(=O)[C@H]([C@@H](C)CC)NC(=O)[C@@H]2C[C@@H]3CCCC[C@@H]3N2C(=O)[C@@H]2CCCN2C(=O)[C@H](CC(C)C)NC(=O)[C@H](CO)NC(=O)[C@H](CCCNC(=N)N)NC(=O)[C@H](CO)NC1=O
B6: Example 394: ((N-Me)G)-IC+SRSLPPIC+IPN-OH (peptide)
peptide: [Sar]ICSRSLPPICIPN-OH
modifications: disulfide 3-11; N-terminus assumed
SMILES: CC[C@H](C)[C@H](NC(=O)CNC)C(=O)N[C@H]1CSSC[C@@H](C(=O)N[C@H](C(=O)N2CCC[C@H]2C(=O)N[C@@H](CC(N)=O)C(=O)O)[C@@H](C)CC)NC(=O)[C@H]([C@@H](C)CC)NC(=O)[C@@H]2CCCN2C(=O)[C@@H]2CCCN2C(=O)[C@H](CC(C)C)NC(=O)[C@H](CO)NC(=O)[C@H](CCCNC(=N)N)NC(=O)[C@H](CO)NC1=O
B7: Example 54: VIC+SRS-((tBu)A)-PPI-(Pen)+IPD-NH2 (peptide)
peptide: VICSRS[tBuAla]PPI[Pen]IPD-NH2
modifications: disulfide 3-11; N-terminus assumed
SMILES: CC[C@H](C)[C@H](NC(=O)[C@@H](N)C(C)C)C(=O)N[C@H]1CSSC(C)(C)[C@@H](C(=O)N[C@H](C(=O)N2CCC[C@H]2C(=O)N[C@@H](CC(=O)O)C(N)=O)[C@@H](C)CC)NC(=O)[C@H]([C@@H](C)CC)NC(=O)[C@@H]2CCCN2C(=O)[C@@H]2CCCN2C(=O)[C@H](CC(C)(C)C)NC(=O)[C@H](CO)NC(=O)[C@H](CCCNC(=N)N)NC(=O)[C@H](CO)NC1=O
B8: Example 401: GIC+SRSL-(Pip)-PIC+ID-OH (peptide)
peptide: GICSRSL[Pip]PICID-OH
modifications: disulfide 3-11; N-terminus assumed
SMILES: CC[C@H](C)[C@H](NC(=O)CN)C(=O)N[C@H]1CSSC[C@@H](C(=O)N[C@H](C(=O)N[C@@H](CC(=O)O)C(=O)O)[C@@H](C)CC)NC(=O)[C@H]([C@@H](C)CC)NC(=O)[C@@H]2CCCN2C(=O)[C@@H]2CCCCN2C(=O)[C@H](CC(C)C)NC(=O)[C@H](CO)NC(=O)[C@H](CCCNC(=N)N)NC(=O)[C@H](CO)NC1=O

Tests used:
Assay in all cases: cell-based or functional assay
[1] = biological target: T1, recombinant human MASP1 active protease (amino acids 297-699, C-terminal His Tag) (human, UniProt P48740 297-699)
T1 sequence: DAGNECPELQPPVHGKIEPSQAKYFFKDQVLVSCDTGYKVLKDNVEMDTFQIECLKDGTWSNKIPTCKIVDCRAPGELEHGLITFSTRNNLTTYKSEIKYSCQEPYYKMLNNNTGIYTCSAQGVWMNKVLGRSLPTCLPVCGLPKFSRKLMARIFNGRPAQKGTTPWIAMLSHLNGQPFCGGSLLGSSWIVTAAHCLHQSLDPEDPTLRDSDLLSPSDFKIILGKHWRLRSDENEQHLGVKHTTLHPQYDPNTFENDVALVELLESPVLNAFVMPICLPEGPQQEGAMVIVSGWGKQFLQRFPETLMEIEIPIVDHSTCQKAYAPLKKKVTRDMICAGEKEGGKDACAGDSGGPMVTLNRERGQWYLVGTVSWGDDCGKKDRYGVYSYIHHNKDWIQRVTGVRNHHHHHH

[2] = biological target: recombinant rat MASP2 active protease (amino acids 296-685, C-terminal His Tag) (rat, UniProt Q9JJS8 296-685)
[3] = biological target: T2, recombinant rat MASP1 active protease (amino acids 302-704, C-terminal His Tag) (rat, UniProt Q8CHN8 302-704)
T2 sequence: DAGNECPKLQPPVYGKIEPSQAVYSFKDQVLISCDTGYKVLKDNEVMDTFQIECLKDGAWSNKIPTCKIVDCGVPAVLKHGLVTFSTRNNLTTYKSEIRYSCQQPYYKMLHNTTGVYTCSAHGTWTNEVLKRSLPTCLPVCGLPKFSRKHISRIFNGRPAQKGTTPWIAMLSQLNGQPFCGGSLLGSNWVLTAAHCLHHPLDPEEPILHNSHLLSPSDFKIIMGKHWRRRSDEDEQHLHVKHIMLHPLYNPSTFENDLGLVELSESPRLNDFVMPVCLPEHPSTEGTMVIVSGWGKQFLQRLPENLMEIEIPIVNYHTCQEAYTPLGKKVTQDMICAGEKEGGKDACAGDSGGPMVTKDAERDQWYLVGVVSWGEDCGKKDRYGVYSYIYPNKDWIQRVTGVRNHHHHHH

Chain of recombinant rat MASP2 active protease (amino acids 296-685, C-terminal His Tag) (Q9JJS8 other isoform, or with tags, fused parts or gaps limits assumed): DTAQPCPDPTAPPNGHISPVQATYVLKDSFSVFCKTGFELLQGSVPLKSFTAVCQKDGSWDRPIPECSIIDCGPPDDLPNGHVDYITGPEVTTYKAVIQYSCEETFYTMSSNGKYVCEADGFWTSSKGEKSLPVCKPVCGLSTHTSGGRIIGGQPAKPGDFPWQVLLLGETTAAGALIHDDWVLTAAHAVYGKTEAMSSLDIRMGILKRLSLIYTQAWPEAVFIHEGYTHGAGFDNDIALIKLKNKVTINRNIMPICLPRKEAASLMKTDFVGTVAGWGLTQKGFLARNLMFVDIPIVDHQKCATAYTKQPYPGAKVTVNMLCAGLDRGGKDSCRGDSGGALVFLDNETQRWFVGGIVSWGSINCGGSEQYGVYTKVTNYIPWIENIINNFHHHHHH

Binder	human MASP1 IC50 [1] [nM]	rat MASP2 IC50 [2] [nM]	rat MASP1 IC50 [3] [nM]
AICSRSLP[Oic]I[Pen]IPD-OH (disulfide 3-11; also: choline salt) [Example 432: AIC+SRSLP-(Oic)-I-(Pen)+IPD-OH (choline-salt)]	2.7		
[Sar]ICSRSLP[Oic]I[Pen]IP-{PEG5‑CH2CO2H (18 atoms)-NH2} (disulfide 3-11) [Example 83: ((N-Me)G)-IC+SRSLP-(Oic)-I-(Pen)+IP-(PEG5-CH2CO2H (18 atoms))-NH2]		48	120
[Sar]ICSRS[tBuAla]PPI[Pen]IP[PEG9(31 atoms)]-NH2 (disulfide 3-11) [Example 44: ((N-Me)G)-IC+SRS-((tBu)A)-PPI-(Pen)+IP-(PEG9(31 atoms))-NH2]		35	87
B1		48	56
B2		68	36
B3		40	67
AICSRSLP[Oic]I[Pen]IPD-OH (disulfide 3-11; also: HCl salt) [Example 29: AIC+SRSLP-(Oic)-I-(Pen)+IPD-OH (HCl salt)]		17.4	
B4		13	28
[Sar]ICSRS[tBuAla]PPI[Pen]IP-{PEG2-NH2} (disulfide 3-11; also: HCl salt) [Example 39: ((N-Me)G)-IC+SRS-((tBu)A)-PPI-(Pen)+IP-(PEG1(10 atoms))-NH2 (HCl salt)]		37	49
AICSRSLP[Oic]I[Pen]IPD-OH (disulfide 3-11) [Example 5: AIC+SRSLP-(Oic)-I-(Pen)+IPD-OH (salt free form)]		49	
B5		80	
B6	52		
B7		48	160
[Sar]ICSRS[tBuAla]PPI[Pen]IP-{PEG3-NH2} (disulfide 3-11) [Example 72: ((N-Me)G)-IC+SRS-((tBu)A)-PPI-(Pen)+IP-(PEG2(13 atoms))-NH2]		27	43
B8	56		
[Sar]ICSRSLP[Oic]I[Pen]IP-NH2 (disulfide 3-11; also: HCl salt) [Example 67: ((N-Me)G)-IC+SRSLP-(Oic)-I-(Pen)+IP-NH2 (HCl salt)]		36	72
[Sar]ICSRS[tBuAla]PPI[Pen]IP-{TTDS(3)-NH2} (disulfide 3-11) [Example 85: ((N-Me)G)-IC+SRS-((tBu)A)-PPI-(Pen)+IP-(TTDS)-NH2]		37	75
AICSRSLP[Oic]I[Pen]IPD-OH (disulfide 3-11; also: TFA salt) [Example 13: AIC+SRSLP-(Oic)-I-(Pen)+IPD-OH]		16.4	
AICSRSLP[Oic]I[Pen]IPD-OH (disulfide 3-11; also: sodium salt) [Example 431: AIC+SRSLP-(Oic)-I-(Pen)+IPD-OH (sodium salt)]	2		
[Sar]ICSRS[tBuAla]PPI[Pen]IP-{PEG5‑CH2CO2H (18 atoms)-NH2} (disulfide 3-11) [Example 55: ((N-Me)G)-IC+SRS-((tBu)A)-PPI-(Pen)+IP-(PEG5-CH2CO2H (18 atoms))-NH2]		27	65
[Sar]ICSRSLP[Oic]I[Pen]IP-{PEG3-NH2} (disulfide 3-11) [Example 7: ((N-Me)G)-IC+SRSLP-(Oic)-I-(Pen)+IP-(PEG2(13 atoms))-NH2]		16	30
